From the supplement of paper PMC7125110
± gives the standard error. For part of these data: Fewer inactive variants are shown than the library holds.

B1: glmS ribozyme (parent)
chain: AUAAAAGCGCCAGAACUACAGAAAUGUAGUUGACGAGGAGGAGGUUUAUCGAAUUUUCGGCGGAUGCCUCCAAA

How the values were obtained:
Conditions in all cases: with glucosamine-6-phosphate
glucosamine-6-phosphate [1] = variants of: B1; assay: kcat; higher = faster cleavage; RNA array
Summary of the method: (§1)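 Tiles of sequenced MiSeq chips were imaged over ~14 h at 37 °C. On them, barcoded ribozyme variants had been transcribed in situ by E. coli RNA polymerase and were tracked via a hybridised Cy3 probe while glucosamine-6-phosphate (40 μM to 10 mM) in HEPES/KCl/Mg(OAc)2 buffer flowed in. Per-tile medians, normalised to baseline and to non-cleaving reference variants, were fit to one- or two-exponential decays for kobs, and weighted Michaelis–Menten fits gave kcat and KM.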

glucosamine-6-phosphate [2] = variants of: B1; assay: self-cleavage kobs at 40 uM GlcN6P; higher = faster cleavage; RNA array
Summary of the method: as §1

glucosamine-6-phosphate [3] = variants of: B1; assay: self-cleavage kobs at 160 uM GlcN6P; higher = faster cleavage; RNA array
Summary of the method: as §1

glucosamine-6-phosphate [4] = variants of: B1; assay: self-cleavage kobs at 640 uM GlcN6P; higher = faster cleavage; RNA array
Summary of the method: as §1

glucosamine-6-phosphate [5] = variants of: B1; assay: self-cleavage kobs at 2500 uM GlcN6P; higher = faster cleavage; RNA array
Summary of the method: as §1

glucosamine-6-phosphate [6] = variants of: B1; assay: self-cleavage kobs at 10000 uM GlcN6P; higher = faster cleavage; RNA array
Summary of the method: as §1

glucosamine-6-phosphate [7] = variants of: B1; assay: KM; higher = weaker cofactor use; RNA array
Summary of the method: as §1

Variant | kcat (glucosamine-6-phosphate [1]) | self-cleavage kobs at 40 uM GlcN6P (glucosamine-6-phosphate [2]) | self-cleavage kobs at 160 uM GlcN6P (glucosamine-6-phosphate [3]) | self-cleavage kobs at 640 uM GlcN6P (glucosamine-6-phosphate [4]) | self-cleavage kobs at 2500 uM GlcN6P (glucosamine-6-phosphate [5]) | self-cleavage kobs at 10000 uM GlcN6P (glucosamine-6-phosphate [6]) | KM (glucosamine-6-phosphate [7])
AUAAAAGCGCCAGAACUACAGAAAUGUAGUUGACGAGGAGGGGGUUUAUCGAAUUUUCGGCGGAUGCCUACAAA | 0.000182 ± 4.2e-05 s⁻¹ | 4.72e-05 ± 8.8e-06 s⁻¹ | 6.35e-05 ± 1.1e-05 s⁻¹ | 0.000154 ± 1.6e-05 s⁻¹ | 0.000325 ± 3.7e-05 s⁻¹ | 0.000155 ± 1.5e-05 s⁻¹ | 
AUAAAAGCGCCAGAACUACAGAAAUGUAGUUGACGAGGAGGAGGUUUAUCGAAUUUUCGGCGUAUGCGUCCAAA | 1.09e-05 ± 2.8e-06 s⁻¹ | < 1e-05 s⁻¹ |  |  | < 1e-05 s⁻¹ |  | 
AUAAAAGCGCCAGAACUACAGAAAUGUAGUUGACGAAGAGGAGGUUUCUCGAAUUUUCGGCGGAUGCCUCCAAA | 1.56e-05 ± 6e-07 s⁻¹ |  | < 1e-05 s⁻¹ |  |  |  | 1270 ± 290 µM
AUAAAAGCGCCAGAAAUACAGAAAUGUAGUUGACGAGGAGAAGGUUUAUCGAAUUUUCGGCGGAUGCCUCCAAA | 4e-05 ± 4.5e-07 s⁻¹ |  |  |  |  | 3.7e-05 ± 1.1e-05 s⁻¹ | 806 ± 51 µM
AUAAAAGCGCCAGAACUACAGAAAUGUAGUUGACGAGGAGGAGGUUUAUCGAAUUUUCGGCGAAUGCAUCCAAA | 2.09e-05 ± 4.7e-06 s⁻¹ |  |  |  |  |  | 
AUAAAAGCGCCAGAACUACAGAAAUGUAGUUGACGAGGGGGAGGUUUGUCGAAUUUUCGGCGGAUGCCUCCAAA | 0.000124 ± 2.2e-05 s⁻¹ |  |  |  | 0.00013 ± 2.7e-05 s⁻¹ | 0.000106 ± 1.4e-05 s⁻¹ | 
AUAAAAGCGCCAGAACUACAGAAAUGUAGCUGACGAGGAGGAGGUUUAUCGAAUUUUCGGCGGAUGUCUCCAAA | 0.0001 ± 1.3e-05 s⁻¹ |  | 3.33e-05 ± 1.3e-05 s⁻¹ | 3.56e-05 ± 7.9e-06 s⁻¹ | 8.48e-05 ± 1.8e-05 s⁻¹ | 9.05e-05 ± 1e-05 s⁻¹ | 927 ± 390 µM
AUAAAAGCGCCAGAACUACAGAAAUGUAGUUGACGAGGAGGAGGUUAAUCGAAUUUUCGGCGGAUGCCGCCAAA | 7.34e-05 ± 1.1e-05 s⁻¹ |  |  | 7.68e-05 ± 1.1e-05 s⁻¹ | 8.85e-05 ± 1.1e-05 s⁻¹ | 5.37e-05 ± 1e-05 s⁻¹ | 
AUAAAAGCGCCAGAACUACAGAAAUGUAGUUGACGAGGAGGAAGUUUAUCGAAUUUUCGGCGGAUGCCUUCAAA | 6.4e-05 ± 1.2e-05 s⁻¹ |  |  |  | 4.94e-05 ± 8.8e-06 s⁻¹ | 5.31e-05 ± 8.3e-06 s⁻¹ | 
AUAAAAGCGCCAUAACUACAGAAAUGUAGUUGACGAGGGGGAGGUUUAUCGAAUUUUCGGCGGAUGCCUCCAAA | 0.00264 ± 0.00039 s⁻¹ | 5.19e-05 ± 1.1e-05 s⁻¹ | 0.000147 ± 3.4e-05 s⁻¹ | 0.000749 ± 0.00012 s⁻¹ | 0.00177 ± 0.0003 s⁻¹ | 0.00208 ± 0.00023 s⁻¹ | 2070 ± 520 µM
